Article PMC12232145 (BMC Microbiology, 2025)

Target: human plasminogen (human, UniProt P00747 20-810)
Assay: SPR

Sequence of human plasminogen (P00747 20-810): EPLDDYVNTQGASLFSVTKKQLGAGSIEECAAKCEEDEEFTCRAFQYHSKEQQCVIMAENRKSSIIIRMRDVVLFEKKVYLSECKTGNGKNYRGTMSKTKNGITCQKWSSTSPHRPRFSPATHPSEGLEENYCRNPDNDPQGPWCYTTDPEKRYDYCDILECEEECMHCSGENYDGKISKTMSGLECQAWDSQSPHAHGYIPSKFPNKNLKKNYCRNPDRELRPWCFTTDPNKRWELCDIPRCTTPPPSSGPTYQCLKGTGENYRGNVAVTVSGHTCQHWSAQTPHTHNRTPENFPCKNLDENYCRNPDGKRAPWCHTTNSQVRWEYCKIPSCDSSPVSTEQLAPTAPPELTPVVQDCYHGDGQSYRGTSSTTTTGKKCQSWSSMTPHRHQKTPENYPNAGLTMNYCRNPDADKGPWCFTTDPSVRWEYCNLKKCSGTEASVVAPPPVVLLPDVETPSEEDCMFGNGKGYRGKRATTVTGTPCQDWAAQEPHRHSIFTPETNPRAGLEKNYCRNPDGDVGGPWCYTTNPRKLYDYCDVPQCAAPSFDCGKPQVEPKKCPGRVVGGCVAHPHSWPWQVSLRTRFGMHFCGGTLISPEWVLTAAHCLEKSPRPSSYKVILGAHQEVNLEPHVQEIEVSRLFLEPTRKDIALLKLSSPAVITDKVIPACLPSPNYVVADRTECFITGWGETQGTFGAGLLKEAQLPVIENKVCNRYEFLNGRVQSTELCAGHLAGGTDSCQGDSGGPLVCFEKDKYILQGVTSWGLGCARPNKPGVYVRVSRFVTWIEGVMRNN

B1: recombinant FabG (3-ketoacyl-ACP reductase) of Streptococcus suis serotype 2 strain ZY05719 (natural protein, UniProt A0A0H3MXL9 1-244, looked up)
chain: MELTNKNVFVTGSSRGIGLAIAHKFASLGANVVLNGRGQLGQDLLDSFADYGVKVLAISGDISSAQDAKRMVAEAIETLGSVDILVNNAGITKDGMALRMTEEDFDTVLKVNLTGTFNMTQAVLKPMTKAREGAIINLSSVSGLIGNAGQANYSASKAGVIGFTKAIAREVAGRNVRVNAIAPGFIQSDMTDVLSDKIKEAMTAQIPMKRFGATEEVADVAVFLAKQEYLTGQVIAVDGGLTMQ
Kd: 1.72 nM
